Here are results for one substance from publication PMC6780499, “Characterization, Recombinant Production and Structure-Function Analysis of NvCI, A Picomolar Metallocarboxypeptidase Inhibitor from the Marine Snail Nerita versicolor” (Marine Drugs, 2019).

No end group written: not given here.

Common to all, as to assay: Ki determination, tight-binding inhibition of metallocarboxypeptidase
Common to all, as to format: biochemical

Test [1] concerns the target T1, hCPA1 (Homo sapiens, UniProt P15085).
T1 sequence (P15085 111-419): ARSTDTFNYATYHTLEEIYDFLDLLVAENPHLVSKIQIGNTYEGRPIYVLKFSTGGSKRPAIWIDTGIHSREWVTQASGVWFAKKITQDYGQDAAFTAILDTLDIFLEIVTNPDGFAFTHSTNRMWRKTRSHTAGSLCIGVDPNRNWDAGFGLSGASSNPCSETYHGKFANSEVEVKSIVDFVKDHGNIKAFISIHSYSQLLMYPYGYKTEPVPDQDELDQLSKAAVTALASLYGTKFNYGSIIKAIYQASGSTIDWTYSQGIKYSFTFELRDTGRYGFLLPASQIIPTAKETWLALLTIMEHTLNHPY
The following applies: tight-binding equation fit, equilibrium conditions; substrate AAFP 0.1mM, 20mM Tris-HCl pH 7.5, 500mM NaCl; preincubation 15 min; 37 °C; means (n = 3) ± SD. On the procedure: (§1) Inhibitory activities against CPA- and CPB-type forms (bovine and human variants of CPA1, CPA2, CPA4, CPB1, and TAFI) were assayed for all extracts, subject to the experimental conditions that enzyme (E), substrate (S) and inhibitor (I) concentrations as well as the [I]/[E] ratio and preincubation time followed the requirements for tight-binding inhibitor assays. Similar approaches were followed to measure the activities of proteases of different catalytic types, like pepsin, papain, trypsin and subtilisin [45, 46, 47, 48]. All assays were performed in triplicate at 25 °C in a multiplexed manner. For 96-well assays an iEMS spectrophotometer reader/dispenser FM (Labsystems, Finland) was used with a final reaction volume of 250 μL. For cuvette assays, a Cary 400 Bio spectrophotometer (Varian Inc., Palo Alto, CA, USA) spectrophotometer was used with a final reaction volume of 1 ml. The reactions were followed at 5 s intervals for 5 min and recorded as initial velocities. In the protease inhibition assays, mixtures of activity buffer, biological sample and enzyme were preincubated at 25 °C for 10min, before substrate addition. The assay conditions were as follows: for CPA-like enzymes, 7.0nM CPA, 0.1mM AAFP substrate in 20mM Tris-HCl pH 7.5, 500mMNaCl, 1% v/v dimethyl sulfoxide (DMSO), 0.05% w/v BRIJ-35 was used. For CPB-like enzymes, CPB 3.0nM CPB, 0.1mM AAFA substrate and activity buffer of 20 mM Tris-HCl pH [50].
(§2) The Ki values of natural and recombinant NvCI against bCPA1, hCPA1, hCPA2, rat CPA3, hCPA4, hCPB1, bTAFI, hTAFI, hCPD and hCPZ were determined by measuring the enzymatic residual activity (Vi/V0 = a) at different inhibitor concentrations and using a fixed enzyme and substrate concentrations as described above, where vi and v0 are the fraction of enzymatic activity in the presence and absence of inhibitor, respectively, in terms of initial velocities. The determination of Ki values was carried out on equilibrium conditions ([E0]/Ki ≤ 10), using a previously determined preincubation time of 15 min, required to establish enzyme-inhibitor equilibrium. Working temperature was 37 °C. The best estimates of Ki values were obtained by fitting the experimental data to the equation for tight-binding inhibitors by non-linear regression using the GraphPad Prisma 5 software (GraphPad Software, Inc., San Diego, CA, USA) at p < 0.05. The real Ki values against each of these A/B-type MCPs were calculated according to the equation described by Morrison and Copeland [19, 20].

Test [2] concerns the target T2, pCPB (Sus scrofa, UniProt P09955).
T2 sequence (P09955 111-416): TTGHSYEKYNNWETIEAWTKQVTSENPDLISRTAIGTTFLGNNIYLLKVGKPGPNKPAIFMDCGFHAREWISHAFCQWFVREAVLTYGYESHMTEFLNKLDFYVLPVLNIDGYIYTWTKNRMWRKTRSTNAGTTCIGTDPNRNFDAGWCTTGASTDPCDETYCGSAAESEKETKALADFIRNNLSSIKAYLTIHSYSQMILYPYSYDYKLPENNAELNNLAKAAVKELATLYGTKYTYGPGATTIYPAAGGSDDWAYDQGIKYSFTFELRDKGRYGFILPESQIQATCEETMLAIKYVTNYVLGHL
The following applies: tight-binding equation fit, equilibrium conditions; substrate AAFA 0.1mM; preincubation 15 min; 37 °C; means (n = 3) ± SD. The protocol:
as §1, §2

Test [3] deals with T3, hCPA2 (Homo sapiens, UniProt P48052).
T3 sequence (P48052 115-419): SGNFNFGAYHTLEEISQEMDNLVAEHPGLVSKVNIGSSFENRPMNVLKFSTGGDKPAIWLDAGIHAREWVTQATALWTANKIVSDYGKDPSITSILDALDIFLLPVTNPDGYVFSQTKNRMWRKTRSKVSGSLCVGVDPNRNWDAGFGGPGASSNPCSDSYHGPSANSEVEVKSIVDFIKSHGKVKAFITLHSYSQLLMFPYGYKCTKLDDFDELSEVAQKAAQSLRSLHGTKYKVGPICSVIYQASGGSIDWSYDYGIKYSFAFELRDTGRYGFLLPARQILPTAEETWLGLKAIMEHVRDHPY
The following applies: tight-binding equation fit, equilibrium conditions; substrate AAFP 0.1mM, 20mM Tris-HCl pH 7.5, 500mM NaCl; preincubation 15 min; 37 °C; means (n = 3) ± SD. The protocol: as §1, §2

The target of test [4] is T4, hCPZ (Homo sapiens, UniProt Q66K79).
T4 sequence (Q66K79 19-652): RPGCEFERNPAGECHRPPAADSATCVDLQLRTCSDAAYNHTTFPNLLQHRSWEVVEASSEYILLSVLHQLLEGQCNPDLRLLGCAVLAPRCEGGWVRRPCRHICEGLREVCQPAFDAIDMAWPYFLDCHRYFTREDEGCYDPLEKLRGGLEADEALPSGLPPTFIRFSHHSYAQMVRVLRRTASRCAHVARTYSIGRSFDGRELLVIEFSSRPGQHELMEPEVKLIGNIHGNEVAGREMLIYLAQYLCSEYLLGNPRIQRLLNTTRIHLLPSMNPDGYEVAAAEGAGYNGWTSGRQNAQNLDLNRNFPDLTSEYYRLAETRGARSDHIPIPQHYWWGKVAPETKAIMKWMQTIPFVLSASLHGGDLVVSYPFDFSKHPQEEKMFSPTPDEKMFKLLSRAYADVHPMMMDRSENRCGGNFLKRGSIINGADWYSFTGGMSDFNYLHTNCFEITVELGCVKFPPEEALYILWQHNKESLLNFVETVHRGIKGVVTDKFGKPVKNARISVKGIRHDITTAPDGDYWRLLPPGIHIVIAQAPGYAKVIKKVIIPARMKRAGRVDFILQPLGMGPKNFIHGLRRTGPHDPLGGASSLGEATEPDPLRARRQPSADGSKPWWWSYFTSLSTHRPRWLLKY
Conditions: NI: No inhibitory activity detected for the [I]0 range from 1 nM to 1 mM. On the procedure: as §1, §2

One may read the Ki as a dissociation constant, usually derived from enzyme kinetics or from competition with a known ligand. Read a low Ki as a stronger hold on the target. As for “NvCI: 53-residue, three-disulphide proteinaceous metallocarboxypeptidase inhibitor from the marine snail Nerita versicolor; major isoform; UniProt P86912 (FHVPDDRPCINPGRCPLVPDATCTFVCKAADNDFGYECQHVWTFEGQRVGCYA; disulfide (positions not given here); also: three disulphides, pairing not given here; UniProt P86912 1-53, looked up)”, the Ki in test [1] is 1.8 ± 0.2 pM; in test [2], 0.00065 ± 1.22e-05 µM; in test [3] it was 0.00651 ± 6.86e-05 µM; in test [4], more than 1000 µM.
